Results on 15 sequences are retold here after PMC3724861.

The target in this data set is T1, Caup homeodomain (Drosophila melanogaster) (UniProt P54269).
T1 sequence: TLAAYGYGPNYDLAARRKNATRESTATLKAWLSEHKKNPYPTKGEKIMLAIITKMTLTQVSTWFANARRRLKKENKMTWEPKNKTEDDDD
The following applies: PBM.
For the sequence “GACATGTAC (double strand) [9-mer GACATGTAC]”, the binding signal (minimum E-score of the two 8-mers) turned out to be 0.477. As for “CTACATGTA (double strand) [9-mer CTACATGTA]”, the binding signal (minimum E-score of the two 8-mers) was found to be 0.476. Sequence “TACATGTCA (double strand) [9-mer TACATGTCA]” returned a binding signal (minimum E-score of the two 8-mers) of 0.461. In turn, “AACATGTAA (double strand) [9-mer AACATGTAA]” had a binding signal (minimum E-score of the two 8-mers) of 0.468.

For the sequence “ATACATGTC (double strand) [9-mer ATACATGTC]”, the binding signal (minimum E-score of the two 8-mers) turned out to be 0.469. The value for “AACATGTAG (double strand) [9-mer AACATGTAG]” was 0.476. As to “TACATGTAA (double strand) [9-mer TACATGTAA]”, the binding signal (minimum E-score of the two 8-mers) was determined as 0.468. “AACATGTAT (double strand) [9-mer AACATGTAT]”: the binding signal (minimum E-score of the two 8-mers) is 0.469. The value for “ATGTACATG (double strand) [9-mer ATGTACATG]” was 0.469; that for “ATACATGTA (double strand) [9-mer ATACATGTA]” was 0.469; that for “GACATGTAA (double strand) [9-mer GACATGTAA]” was 0.468. To “GTACATGTA (double strand) [9-mer GTACATGTA]” belongs 0.48; to “ACATGTACA (double strand) [9-mer ACATGTACA]”, 0.469.

As to “AACATGTAC (double strand) [9-mer AACATGTAC]”, the binding signal (minimum E-score of the two 8-mers) is 0.48. Consider “CTACATGTC (double strand) [9-mer CTACATGTC]”, for which the binding signal (minimum E-score of the two 8-mers) is 0.476.
